This is an account of results in patent publication US20130058955A1.

Assay [1] addresses K63-linked diubiquitin (Boston Biochem) (human) (UniProt P0CG48). In words: western blot, IgG 1 µg/mL, two-fold dilutions of K63-linked diubiquitin 1 µg to 16 ng. For orientation: In western blotting, separated proteins are transferred to a membrane and probed.
Assay [2] addresses K11 polyubiquitin linkages in 293T cell lysates (human) (UniProt P0CG48). In words: IP from 293T lysate (empty vector), 7 M urea, mass spec AQUA; input 1085 pmol.
The target in assay [3] is K48 polyubiquitin linkages in 293T cell lysates (human) (UniProt P0CG48). In words: IP from lysate of 293T cells over-expressing LUBAC, 7 M urea, mass spec AQUA; input 12420 pmol.

With Apu3.A8 anti-K63 IgG (antibody), the limit of detection in assay [1] stood at 62 ng.

With “isotype control IgG (unrelated human kappa IgG1 antibody)”, the results for the pmol of ubiquitin linkage in the immunoprecipitate in assay [2] and in assay [3] were 0 pmol and 1 pmol, respectively.
